# Assay results: patent US6861578B1, “Method for plant protection against insects or nematodes by transformation with a nucleic acid encoding equistatin” (Plant Research International B.V., priority 1997, dated 2005)
# B1: equistatin: cysteine/aspartic protease inhibitor from sea anemone Actinia equina with three type I repeated thyroglobulin domains; purified or recombinant from E. coli (protein)
# chain: SLTKCQQLQASANSGLIGTYVPQCKETGEFEEKQCWGSTGYCWCVDEDGKEILGTKIRGSPDCSRRKAALTLCQMMQAIIVNVPGWCGPPSCKADGSFDEVQCCASNGECYCVDKKGKELEGTRQQGRPTCERHLSECEEARIKAHSNSLRVEMFVPECLEDGSYNPVQCWPSTGYCWCVDEGGVKVPGSDVRFKRPTC
# modifications: left off: large carriers; small tags and cut ends
# notes: purified or recombinant from E. coli
# Tested on: endoprotease activity of Colorado potato beetle larval gut extracts
# Experiment: Broad spectrum endoprotease activity of Colorado potato beetle gut extract, Z-Phe-Arg-pNA
# Type: biochemical, Leptinotarsa decemlineata
# Source text: Guts of final instar Colorado potato beetle larvae reared on methyl jasmonate induced plants were isolated and extracted essentially as described (Bolter and Jongsma, J. Insect Physiol. 41: 1071-1078). In these gut extracts the proteases that are sensitive to the protease inhibitors of potato are already complexed. The residual protease activity is composed of potato protease-inhibitor-insensitive proteases which were induced in response to the methyl jasmonate induced potato inhibitors. These proteases are the proteases that render the beetle larvae insensitive to protease inhibitor defense of the potato plant. Wle tested a broad range of different cysteisie protease inhibitors for activity specifically against these induced potato protease inhibitor-insensitive cysteine protesses. Nearly all of these inhibitors were purified at the Jozef Stefan Institute in Slovenia. Testing their potential against Colorado potato beetle was done using both general protein substrates (azocasein, table 2) as well as specific synthetic substrates (L-Arg-pNA, table 3; pGlu-Phe-Leu-pNA, table 4; Z-Phe-Arg-pNA, table 5; Z-Arg-Arg-pNA, table 6). In specific cases inhibitors were tested at two concentrations, eauimolar and in excess to the protease, in order to obtain an indication of the tightness of the complex. […] Importantly, this class of inhibitors was capable of inhibiting nearly all general cysteine protease activity. The equistatin peptide molecule and a functional derivative thereof were not very active against the aminopeptidase-like cysteine protease activity. […] The best combination of inhibitors for full toxicity against the Colorado potato beetle would therefore be a combination of equistatin or p41 invariant chain fragment and stefin-like inhibitors.
molecule,measurement,setting,value
B1,"% of residual activity, equimolar",equimolar,30%
same,"% of residual activity, excess inhibitor",excess inhibitor,20%
